Measured values as given in US20240148894A1, “USE OF ANTIBODY-DRUG CONJUGATE TARGETING HER2 IN TREATMENT OF SPECIFIC BREAST CANCER” (priority 2021, published 2024).
Several values for one entry are separate records, joined by “and”; a condition that tells them apart may be missing. Equal values may be shown once. Entries after “also recorded” stand apart in the source; their conditions may differ.

Test system: HER2-positive (IHC 3+ or FISH +) locally advanced or metastatic breast cancer
Test: Parallel-group, randomized, open-label clinical trial; progression-free survival (PFS), ITT and metastatic-site subgroup analyses
Type: in vivo, human
Protocol: This study was a parallel-group, randomized, open-label clinical trial to evaluate the efficacy and safety of Disitamab vedotin as compared to treatment with lapatinib and capecitabine in patients with HER2-positive (positive being defined as IHC 3+ or FISH +) locally advanced or metastatic breast cancer. Subjects were randomized 1:1.
The primary endpoint indicator of the study was PFS (progression-free survival), which was evaluated for 6 weeks (±7 days).
Disitamab vedotin, namely RC48-ADC (average DAR value: 4±0.5), was administered at a dose of 2.0 mg/kg via intravenous drip, once every 2 weeks, 42 days as one treatment cycle.

[1] = overall ITT, RC48-ADC relative to capecitabine+lapatinib

B1: Disitamab vedotin (conjugate, chains of the INN, looked up)
VH: EVQLVQSGAEVKKPGATVKISCKVSGYTFTDYYIHWVQQAPGKGLEWMGRVNPDHGDSYYNQKFKDKATITADKSTDTAYMELSSLRSEDTAVYFCARNYLFDHWGQGTLVTVSS
VL: DIQMTQSPSSVSASVGDRVTITCKASQDVGTAVAWYQQKPGKAPKLLIYWASIRHTGVPSRFSGSGSGTDFTLTISSLQPEDFATYYCHQFATYTFGGGTKVEIK
modifications: vedotin (MMAE) payload
Disease progression or death, % (Bone metastasis: No (N=63 vs 68), ITT): 63.5%
Censoring, % (Bone metastasis: No, ITT): 36.5%
Progression-free survival time, Median (95% CI) (Bone metastasis: No, ITT, Kaplan-Meier): 9.6 months and 9.6 (6.9, 13.1) months
COX proportional hazards model (without considering stratification factors) Hazard ratio (95% CI) (Bone metastasis: No, RC48-ADC relative to capecitabine+lapatinib): 0.76 (0.50, 1.15)
Disease progression or death, % (Bone metastasis: Yes (N=36 vs 33), ITT): 77.8%
Censoring, % (Bone metastasis: Yes, ITT): 22.2%
Progression-free survival time, Median (95% CI) (Bone metastasis: Yes, ITT, Kaplan-Meier): 7.8 months and 7.8 (2.8, 12.4) months
COX proportional hazards model (without considering stratification factors) Hazard ratio (95% CI) (Bone metastasis: Yes, RC48-ADC relative to capecitabine+lapatinib): 0.95 (0.56, 1.61)
Disease progression or death, % (Liver metastasis: No (N=61 vs 58), ITT): 75.4%
Censoring, % (Liver metastasis: No, ITT): 24.6%
Progression-free survival time, Median (95% CI) (Liver metastasis: No, ITT, Kaplan-Meier): 7.0 months and 7.0 (5.5, 9.9) months
COX proportional hazards model (without considering stratification factors) Hazard ratio (95% CI) (Liver metastasis: No, RC48-ADC relative to capecitabine+lapatinib): 1.26 (0.83, 1.91)
Disease progression or death, % (Liver metastasis: Yes (N=38 vs 43), ITT): 57.9%
Censoring, % (Liver metastasis: Yes, ITT): 42.1%
Progression-free survival time, Median (95% CI) (Liver metastasis: Yes, ITT, Kaplan-Meier): 12.5 months and 12.5 (7.1, 14.1) months
COX proportional hazards model (without considering stratification factors) Hazard ratio (95% CI) (Liver metastasis: Yes, RC48-ADC relative to capecitabine+lapatinib): 0.41 (0.24, 0.71)
Disease progression or death, % (Lung metastasis: No (N=55 vs 49), ITT): 61.8%
Censoring, % (Lung metastasis: No, ITT): 38.2%
Progression-free survival time, Median (95% CI) (Lung metastasis: No, ITT, Kaplan-Meier): 10.9 months and 10.9 (5.7, 13.7) months
COX proportional hazards model (without considering stratification factors) Hazard ratio (95% CI) (Lung metastasis: No, RC48-ADC relative to capecitabine+lapatinib): 0.68 (0.42, 1.07)
Disease progression or death, % (Lung metastasis: Yes (N=44 vs 52), ITT): 77.3%
Censoring, % (Lung metastasis: Yes, ITT): 22.7%
Progression-free survival time, Median (95% CI) (Lung metastasis: Yes, ITT, Kaplan-Meier): 8.2 months and 8.2 (5.6, 12.2) months
COX proportional hazards model (without considering stratification factors) Hazard ratio (95% CI) (Lung metastasis: Yes, RC48-ADC relative to capecitabine+lapatinib): 1.05 (0.67, 1.65)
Disease progression or death, % (Viscera metastasis (CRF): No (N=22 vs 23), ITT): 68.2%
Censoring, % (Viscera metastasis (CRF): No, ITT): 31.8%
Progression-free survival time, Median (95% CI) (Viscera metastasis (CRF): No, ITT, Kaplan-Meier): 9.6 months and 9.6 (4.3, 14.2) months
Disease progression or death, % (Viscera metastasis (CRF): Yes (N=77 vs 78), ITT): 68.8%
Censoring, % (Viscera metastasis (CRF): Yes, ITT): 31.2%
Progression-free survival time, Median (95% CI) (Viscera metastasis (CRF): Yes, ITT, Kaplan-Meier): 9.3 months and 9.3 (6.9, 12.2) months
relative risk reduction of disease progression or death (Viscera metastasis: No (as printed in Table 7), vs capecitabine+lapatinib): 24% chance of
COX proportional hazards model (without considering stratification factors) Hazard ratio (95% CI) (Viscera metastasis: No, RC48-ADC relative to capecitabine+lapatinib): 1.02 (0.51, 2.05)
COX proportional hazards model (without considering stratification factors) Hazard ratio (95% CI) (Viscera metastasis: Yes, RC48-ADC relative to capecitabine+lapatinib): 0.76 (0.53, 1.10)
COX proportional hazards model (considering stratification factors) Hazard ratio (95% CI) [1]: 0.82 (0.59, 1.13)
COX proportional hazards model (without considering stratification factors) Hazard ratio (95% CI) [1]: 0.82 (0.60, 1.14)
PFS comparison with control group, in words (overall sample of breast cancer patients): did not show a statistically significant advantage
Censoring, % (overall, ITT analysis set): 31.3%
Disease progression or death, % (overall, ITT analysis set (N=99 vs 101)): 68.7%
Progression-free survival, Median (95% CI) (overall, ITT analysis set, Kaplan-Meier): 9.3 months and 9.3 (6.9, 12.2) months
PFS comparison with control group, in words (patients with bone metastasis): no very significant difference; also recorded: no statistically significant difference
median progression-free survival time longer than control treatment group by (patients with liver metastasis, vs capecitabine+lapatinib): 6.9 months
PFS comparison with control group, in words (patients with lung metastasis): no significant difference
progression-free survival time shorter than capecitabine+lapatinib by (patients with lung metastasis): 0.1 months
PFS comparison with control group, in words (patients with viscera metastasis): did not show statistical differences; also recorded: no statistically significant difference
median progression-free survival time longer than control treatment group by (patients with viscera metastasis, vs lapatinib+capecitabine): 2.4 months
PFS comparison with control group, in words (patients without bone metastasis): did not show a statistically significant advantage; also recorded: no very significant difference; also recorded: no statistically significant difference
relative risk reduction of disease progression or death (patients without bone metastasis, vs capecitabine+lapatinib): 24% chance of
median progression-free survival time longer than control treatment group by (patients without bone metastasis, vs lapatinib+capecitabine): 1.6 months
median progression-free survival time shorter than control treatment group by (patients without liver metastasis, vs capecitabine+lapatinib): 2.0 months
median progression-free survival time longer than control treatment group by (patients without lung metastasis, vs capecitabine+lapatinib): 5.3 months
PFS comparison with control group, in words (patients without viscera metastasis): did not show a statistically significant advantage; also recorded: no statistical difference; also recorded: no statistically significant difference
median progression-free survival time longer than control treatment group by (patients without viscera metastasis, vs lapatinib+capecitabine): 1.5 months
